Assay results reported in publication PMC11589570 (Nature Communications, 2024).
No end group written: not given here.

How the values were obtained:
Details in all cases: both partners purified
GABARAPL2_(1-117) = GABARAPL2_(1-117) (human, UniProt P60520 1-117); test: fluorescence polarisation; tracer displacement: 30 nM Cy5-labelled p62 LIR probe with 4 µM LC3/GABARAPs, small-molecule compounds titrated from 20 µM to 20 nM; same assay buffer; 1 h at room temperature
GABARAP_(1-116) = GABARAP_(1-116) (human, UniProt O95166 1-116); test: as above
LC3C_(1-126) = LC3C_(1-126) (human, UniProt Q9BXW4 1-126); test: as above
LC3B_(1-120) = LC3B_(1-120) (human, UniProt Q9GZQ8 1-120); test: as above
GABARAPL1_(1-117) = GABARAPL1_(1-117) (human, UniProt Q9H0R8 1-117); test: as above
LC3A_(1-120) = LC3A_(1-120) (human, UniProt Q9H492 1-120); test: fluorescence polarisation; direct titration: 30 nM Cy5-labelled p62 LIR probe, purified LC3/GABARAPs titrated from 55 µM to 600 pM; 50 mM HEPES pH 7.5, 150 mM NaCl, 5 % glycerol, 1 mM TCEP, 0.05% TWEEN20; 1 h at room temperature; 384-well plate

Measured: binding result

B1: fluorescently labeled p62 LIR probe (SDNSSGGDDDWTHLSSK-Cy5) (peptide)
peptide: SDNSSGGDDDWTHLSSK-Cy5
notes: also called p62 LIR peptide linked to a Cy5 fluorophore; tracer
binds: all assays above
